Assay results from the nanobody polyreactivity screen of Harvey et al. (2022).

Experiment: yeast display, Sf9 membrane polyspecificity reagent, FACS + sequencing; frameworks hold sequencing errors
Summary of the method: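 Galactose induction of a Saccharomyces cerevisiae BJ5465 synthetic nanobody display library ran 36–48 hours. The cells were then stained for 1 hour at 4 °C with 10% biotinylated, detergent-solubilized Sf9 membrane reagent, pulled down on streptavidin microbeads and FACS-sorted into low and high (top ~1%) gates on expression and reagent-binding fluorescence. Labels for polyreactivity follow the gate of origin.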

| Sequence | polyreactivity (PSR sort gate) |
| --- | --- |
| QVQLVESGGGLVQAGGSLRLSCAASGRTFPSYTMGWYRQAPGKERELVAAITWTGGSTYYADSVKGRFTISRDNAKNSVYLQMNCLKPEDTAVYYCADDDYWGQGTQVTVSS | low polyreactivity |
| QVQLVESGGGLVQAGGSLRLSCAASGRTFPTYTMGWYRQAPGQERELVAAITRGGSTKYADSVKGRFTISRDNAKNTVYLQMNSLKPEDTAVYYCAAVYRYRHSFAYYRHEMDYWGQGTQVTVSS | low polyreactivity |
| QVQLVESGGGLVQAGGSLRLSCAASGRTFPVNGMGWYRQAPGKERELVAAITGGGSTNYADSVKGRFTITRDNAKNTVYLQMNSLKPEDTAVYYCAAGSYSRYLYSLYFDFDYWGQGTQVTVSS | low polyreactivity |
| QVQLVESGGGLVQAGGSLRLSCAASGRTFPVYAMGRYRPAPGKERELVAAISWSGGTTYYADSVPGRFTISRDNAKNTVYLQKHSLKPEDTAVYFCAARFGVRRRYDYWGQGTQVTVSS | high polyreactivity |
| QVQLVESGGGLVQAGGSLRLSCAASGRTFPVYAMGWYRQAPGKERELVAAIRARSVRTYYADSVKGRFTISRDNAKNTVYLQMNSLKPEDTAVYYCAAYYLNPGMDYWGQGTQVTVSS | high polyreactivity |
| QVQLVESGGGLVQAGGSLRLSCAASGRTFPVYSMGWYRQAPGKERELVDVITTRVTSTYYADSVKGRFTISRDNAKNSVYLQMNSLKPEDTAVYYCNARTAYTGNYGPPKGGYWGQGTQVTVSS | high polyreactivity |
| QVQLVESGGGLVQAGGSLRLSCAASGRTFPWKVMGWYRQPPGKERELVAAITRSGGSTYYADSVKGRFTISRDNAKNTVYLQMNSLKQEDTAVYYCAKRGYTSSRRWIYDYWGQGTQVTVSS | high polyreactivity |
| QVQLVESGGGLVQAGGSLRLSCAASGRTFPWYTMGWYRQAPGKERELVAAISWSGGSTFYADSVKGRFTISRDNAKNTVYLQMNSLKPEDTAVYYCAARSRPTVQRGYAYGYWGQGTQVTVSS | low polyreactivity |
| QVQLVESGGGLVQAGGSLRLSCAASGRTFPYNAMGWSRQAPGKERELVAVISSGGGRTYYADSVKGRFTISRDNAKNTVYLQMNSLKPEDTAVYYCNKGGYAIRYDYYWGQGTQVTVSS | high polyreactivity |
| QVQLVESGGGLVQAGGSLRLSCAASGRTFPYNAMGWYRQAPGKEMELVAAITKSAGRTYYAYSVKGRFTISRDNAKNTVYLQMNSLKPEDTAVYYCNTVTVAYGYTRLYAQYYYWGQGTQVTVSS | high polyreactivity |
| QVQLVESGGGLVQAGGSLRLSCAASGRTFPYNAMGWYRQAPGKERELVAAISSGGSTNYADSVKGRFTITRDNAKKTVYLQRNSLKPEDTAVYYCAVTGWPRYTWYSYGYWGQGTQVTVSS | low polyreactivity |
| QVQLVESGGGLVQAGGSLRLSCAASGRTFPYNAMGWYRQAPGKERELVAVISSSGGSTYYADSVKGRFTISRDNAKNTVYLQMNSLKPEDTAVYYCNTRPYYYRRPGYRYSGYDYWGQGTQVTVSS | high polyreactivity |
| QVQLVESGGGLVQAGGSLRLSCAASGRTFPYNVMGWYRQAPRKERELVAAITYDGGNTYYADSVKGRFTISRDNAKNTVYLQMNSLKPEDTAVYYCARPLTYYDEFDSWGQGTQVTVSS | low polyreactivity |
| QVQLVESGGGLVQAGGSLRLSCAASGRTFPYYAMGWYRQAPGKEMELVAAISSSGGRTYYADSVKGRFTISRDNAKNTVYLQMNSLKPEDTAVYYCNAESTYYPSGEDYWGQGTQVTVSS | low polyreactivity |
| QVQLVESGGGLVQAGGSLRLSCAASGRTFPYYAMGWYRQAPGKEREFVAGISRTGGSTYYADSVKGRFTISRDNAKNTVYLQMNSLKPEDTAVYYCNAPYILTQQGGRRYDYWGQGTQVTVSS | high polyreactivity |
| QVQLVESGGGLVQAGGSLRLSCAASGRTFPYYAMGWYRQAPGKETELVASISYRGGNTYYADSVKGRFTISRDNAKNTVYLQMNSQKPEDTAVYYCAKTGRYSARDDYWGQGTQVTVSS | high polyreactivity |
| QVQLVESGGGLVQAGGSLRLSCAASGRTFPYYDKGWYRQAPGKERELVATISWSGGTTYADSVKGRFTISRDNAKNTVYLQMNSLKPEDTAVYFCAAVSYVYRYYWGQGTQVTVSS | low polyreactivity |
